Assay results taken from the supplement of paper PMC9112550, “Optimization of the antimicrobial peptide Bac7 by deep mutational scanning” (BMC Biology, 2022).

System: Escherichia coli TOP10
Assay: shrunken log2 fold change of peptide-encoding DNA abundance (4.5 h post-induction vs induction); higher = less antimicrobial activity (less host growth inhibition)
Conditions: time post-induction: 4.5 h; library: site-saturation at positions 5, 18, 19, 20
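Note: peptides expressed intracellularly from a pBAD plasmid library in pooled LB shake-flask culture, induced with 0.3% L-arabinose, DNA abundance read by NGS, three biological replicates, DESeq2 with apeglm shrinkage.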

| Sequence | shrunken log2 fold change |
| --- | --- |
| RRIRVRPPRLPRPRPRPCDNPRP | -0.418 |
| RRIRVRPPRLPRPRPRPCDVPRP | 0.0119 |
| RRIRVRPPRLPRPRPRPCEEPRP | 0.24 |
| RRIRVRPPRLPRPRPRPCELPRP | -0.286 |
| RRIRVRPPRLPRPRPRPCEMPRP | 1.45 |
| RRIRVRPPRLPRPRPRPCFCPRP | -0.252 |
| RRIRVRPPRLPRPRPRPCFKPRP | -0.243 |
| RRIRVRPPRLPRPRPRPCGFPRP | 0.624 |
| RRIRVRPPRLPRPRPRPCKIPRP | -0.376 |
| RRIRVRPPRLPRPRPRPCLCPRP | -0.491 |
| RRIRVRPPRLPRPRPRPCLPPRP | -0.219 |
| RRIRVRPPRLPRPRPRPCLQPRP | -0.421 |
| RRIRVRPPRLPRPRPRPCNEPRP | -0.0213 |
| RRIRVRPPRLPRPRPRPCNRPRP | -0.0287 |
| RRIRVRPPRLPRPRPRPCPAPRP | -0.121 |
| RRIRVRPPRLPRPRPRPCPCPRP | -0.151 |
| RRIRVRPPRLPRPRPRPCPRPRP | 0.368 |
| RRIRVRPPRLPRPRPRPCQFPRP | 0.143 |
| RRIRVRPPRLPRPRPRPCQKPRP | -0.0265 |
| RRIRVRPPRLPRPRPRPCQLPRP | -0.202 |
| RRIRVRPPRLPRPRPRPCQSPRP | 0.0215 |
| RRIRVRPPRLPRPRPRPCQYPRP | -0.53 |
| RRIRVRPPRLPRPRPRPCRGPRP | 1.11 |
| RRIRVRPPRLPRPRPRPCSSPRP | -0.201 |
| RRIRVRPPRLPRPRPRPCVVPRP | 0.0226 |

| Sequence | shrunken log2 fold change |
| --- | --- |
| RRIRVRPPRLPRPRPRPCYWPRP | -0.0621 |
| RRIRVRPPRLPRPRPRPDAYPRP | -0.056 |
| RRIRVRPPRLPRPRPRPDCMPRP | 0.116 |
| RRIRVRPPRLPRPRPRPDDQPRP | -0.00455 |
| RRIRVRPPRLPRPRPRPDETPRP | 0.126 |
| RRIRVRPPRLPRPRPRPDEVPRP | 0.0201 |
| RRIRVRPPRLPRPRPRPDGNPRP | -0.189 |
| RRIRVRPPRLPRPRPRPDHHPRP | -0.392 |
| RRIRVRPPRLPRPRPRPDHIPRP | -0.206 |
| RRIRVRPPRLPRPRPRPDHVPRP | -0.0193 |
| RRIRVRPPRLPRPRPRPDILPRP | 0.3 |
| RRIRVRPPRLPRPRPRPDINPRP | -0.00784 |
| RRIRVRPPRLPRPRPRPDIRPRP | -0.179 |
| RRIRVRPPRLPRPRPRPDKDPRP | -0.337 |
| RRIRVRPPRLPRPRPRPDKVPRP | -0.332 |
| RRIRVRPPRLPRPRPRPDLPPRP | -0.377 |
| RRIRVRPPRLPRPRPRPDLTPRP | -0.263 |
| RRIRVRPPRLPRPRPRPDMVPRP | -0.0411 |
| RRIRVRPPRLPRPRPRPDPRPRP | 0.395 |
| RRIRVRPPRLPRPRPRPDPTPRP | 0.106 |
| RRIRVRPPRLPRPRPRPDQAPRP | -0.038 |
| RRIRVRPPRLPRPRPRPDQSPRP | -0.053 |
| RRIRVRPPRLPRPRPRPDRAPRP | -0.0118 |
| RRIRVRPPRLPRPRPRPDRTPRP | -0.252 |
| RRIRVRPPRLPRPRPRPDSKPRP | -0.34 |

| Sequence | shrunken log2 fold change |
| --- | --- |
| RRIRVRPPRLPRPRPRPDSMPRP | -0.103 |
| RRIRVRPPRLPRPRPRPDSVPRP | -0.28 |
| RRIRVRPPRLPRPRPRPDTAPRP | -0.164 |
| RRIRVRPPRLPRPRPRPDVSPRP | -0.0827 |
| RRIRVRPPRLPRPRPRPDVWPRP | -0.0858 |
| RRIRVRPPRLPRPRPRPDWIPRP | -0.218 |
| RRIRVRPPRLPRPRPRPDYIPRP | -0.381 |
| RRIRVRPPRLPRPRPRPDYPPRP | -0.177 |
| RRIRVRPPRLPRPRPRPEAAPRP | 0.635 |
| RRIRVRPPRLPRPRPRPEACPRP | 0.11 |
| RRIRVRPPRLPRPRPRPECAPRP | 0.376 |
| RRIRVRPPRLPRPRPRPECQPRP | 0.353 |
| RRIRVRPPRLPRPRPRPECTPRP | 0.464 |
| RRIRVRPPRLPRPRPRPEDEPRP | 0.138 |
| RRIRVRPPRLPRPRPRPEDHPRP | -0.021 |
| RRIRVRPPRLPRPRPRPEDSPRP | 0.0654 |
| RRIRVRPPRLPRPRPRPEDVPRP | 0.0203 |
| RRIRVRPPRLPRPRPRPEGWPRP | 0.762 |
| RRIRVRPPRLPRPRPRPEHPPRP | 0.0168 |
| RRIRVRPPRLPRPRPRPEHVPRP | 0.0447 |
| RRIRVRPPRLPRPRPRPEIYPRP | -0.348 |
| RRIRVRPPRLPRPRPRPEKPPRP | 0.00308 |
| RRIRVRPPRLPRPRPRPELGPRP | 0.308 |
| RRIRVRPPRLPRPRPRPEMDPRP | 0.111 |
| RRIRVRPPRLPRPRPRPEPNPRP | 0.19 |
